Data on 1 molecule can be found in paper PMC9341007 (Structure (London, England : 1993), 2022).

The assay deals with equine ACE2 peptidase domain (horse (Equus caballus), UniProt A0A9L0TPT7 19-615). Nature of the assay: SPR.

B1: hCoV-NL63 spike receptor-binding domain (domain or fragment)
chain: QHTDINFTATASFGGSCYVCKPHQVNISLNGNTSVCVRTSHFSIRYIYNRVKSGSPGDSSWHIYLKSGTCPFSFSKLNNFQKFKTICFSTVEVPGSCNFPLEATWHYTSYTIVGALYVTWSEGNSITGVPYPVSGI
In turn, B1 returned a Kd of 106 nM.
